Results published in the supplement of paper PMC9170038.

These sequences were tested on K4 kissing-loop RNA reporter (assay: apparent KD of K4 kissing-loop reporter; higher = weaker reporter binding). Details: Eterna round: R107; input ligand: arginine 13.2 mM.
Experimental: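 RNA-MaP round R107: designed RNA switches with theophylline, tryptophan, arginine or FMN aptamers are transcribed on-chip within common flanks. They are titrated with a labelled K4 kissing-loop RNA reporter in RNA-MaP buffer (100 mM Tris pH 7.5, 80 mM KCl, 4 mM MgCl2), without ligand or with the indicated ligand. Median apparent KD per design.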
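Further: bound reporter read as fluorescence of individual clusters on recovered sequencing chips by microscopy, with normalized cluster intensities fitted with a binding model.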

Sequence	apparent KD of K4 kissing-loop reporter [nM]
UGCUGUCAAUAAGAUACCAGUUGGACUGAGUGAUGUUCAUCCAUUAUAUCUAUUCUGCUUAACCCUUGGCAGCUUGAUGACGUUU [theeternabot_exclusion_KL_Theo_B_6]	149
UAUACUAGACAAGAGAGAAUUCUCUCAAGAGAGGAUAUCCGAAUUCGGAGAAGGCUCUCUAAGUGAUGUUUGGAAUAGUCUAGAA [AK5 SS FMN A]	448
ACGCUAGCUACCGAAAGGUAGCUAGCGAGUGAGGAUAUGUGGAAACACAGAAGGCACAGCACAGUGAUGUUGUGCGGCGAAAGCC	249
GUAUCGCUAGGAGGAUAUUUCAAAUAACCAAUAAAUGGUUAUACGGAGUGAUGUUCCGAUUUACGGAAAGAAGGCCUAGUGAUAC [FMN B 5]	276
AAGUAGUCCCUUGUUGUCAUCGAAGAUGAACGAGGACCGGUACGGCCGCCACUCGGAGUGAUGUUCCGAUGGCUGCAAAAUAAAA [MatMod 22 - Jieux - Exclusion - Tryptophan A]	88.9
GCCGUAGAUUGAAGGAGCGCUAGUAGUGAUGUUGCUUGCACUUCUUGUGUAAGAAGAACCUAGCAGGUAGGUCGCAAUCUACGGC	270

Same assay, conditions: Eterna round: R107; input ligand: none

Sequence	apparent KD of K4 kissing-loop reporter [nM]
UGAUCACAGUGAUGUUGUGGCAAAAGUGAUACCAGCCGUGUACGAGGCCCUUGGCAGCACCAGGGCUGUACGUCGUUAGAUCCGG [theeternabot_exclusion_KL_Theo_A_33]	194
AUAUCGGUUGAGAGUGAUGUUCCUUGUGUUCGAGGACCGGUACGGCCGCCACUCGGGUAGAAAAUAAAAGAUGUGUUUGAUUUUU [BDazzled - #14 SS Tryptophan A]	203
GUAUCGCUAGGAGGAUAUUCCAUUUUACAUAGAAAUGGCUAUGCGGAGUGAUGUUCCGAUUUACGGGAAGAAGGCCUAGUGAUAC [FMN B 21]	131
UGCAGUGAUGUUGCUAUUUUUCUUGAUUAACGAGGACCGGUACGGCCGCCACUCGAUUUCUCUCUAGUCCAGUAUGUUGUUUGAU [whbob_EX_Tryp_A_t5]	99.8
UAUGUCAUUCUCGACGGAGUGAUGUUCCGACGAGGACCGGUACGGCCGCCACUCGGCAGAAUUGAGUCUGUGAUCCUAGAUCAAU [theeternabot_exclusion_KL_Trp_A_44]	116
CCGCUACCCUCAGGAUAUUAAGUAUUAGUGAUGUUAGUAAACCGAUGGCGAAAGCCAUCGGUAUGUUGAGAAGGGAGGGUAGCGG [whbob_SS_FMNB__2th198]	1170
UACCUGCUGUCAGGAUAUGAGUGCAGUGAUGUUGCACUCAACGUAACCAUCUUGAAAUGCAAACACUCAGAAGGGACGCGCGAAG [Onaninso]	122
GGGUGGCAGGCGGCCGCCACUCUGAGCAGCCAGUGAGUGAUGUUCGUGGCGGAAGAAUGUUCGUAGAGGACCGGGUUUGUUGUUC [Same State Tryptophan B GF 22]	297
UUGUUUAACUGAAGGAGCGGCAAUUGAUACGUAGAUAUAGUGAUGUUAUAUAAGAUAGAGAGCCAGGUAGGUCGCAGAGGUGUUU [ExArgB.R]	246
UUUGGAAGCGGUGUUGAUUAGGGAGCGGAAGGAGCGCCGAUUAUGGCAGGUAGGUCGCCGGAAUGUAGUGAUGUUGCAUAGAGGG [ExArgA.W]	202
UCUGUUGUAUAUGAUACCAGCAGUGAGAGACAGGAAGUAUAGUGAUGUUAUAUGAGAGAAUGCCCUUGGCAGCGUGUGCGGGUGG [SSTheophylB.X]	165
GUACGCUCUCGAGUGAUGUUCGGUAAUCGCUAGGAUAUCGCUUUUGCGAGAAGGAGCGGAAUGAGGAAACUCGUUCUGAGUGUAC [FMN A 22]	447
AAGAAGAAUGGAAGGAGCGAGCAGAUAUAACCAGUGAUGUUGGAAAGCCUUAUUGCUUAAGCUCAGGUAGGUCGCCAAGAAAAGA [whbob_Ex_Arginine_B_2t151]	172
AGUCCACUCUAAAGAGUGGACCUAAGGGAUACCAGUGAUGUUGGUCACCCUUGGCAGCCCUCUGUCAUCGAUAAAGAUGGCAGAA	114
UACUUUAAUUUAUAACUAUCUUUAUUUUGUCAGGAUAUCGUAUUGUCGAGAAGGGACUCUCUCAAGUGAUGUUUGAGAAAUCGUU [JR_SSFMNA_Sub024]	115
AAGUGUUCUAGUGAUACCAGACAUUUCUAUUUUAUCUUUAUAGCUAAGUGAUGUUUAGCAGUCCCUUGGCAGCACUAUUUCACUA [JR_SSTheophyB_Sub017]	137
AAGGUGAUCCUCGAUACCAGCUCAAAAUGAGUGAUGUUCAUGAAAGCCUGGAAACAGGCGAGCCCUUGGCAGCGAGUUACAUCAA [KL-SSTheoB8]	162
AAGACUUGCAUCGAUACCAGCCCAGUGAUGUUGGGCUGCUCUCCAUGGGUGCCAGACACGGGCCCUUGGCAGCGAGGUAAGGCCC [Soveri]	113
AGACUUCACCGAAGGAGCGACGUGGCCUAGUGAUGUUAGGUACGAGAGAAAUCUCGUAUACGUCAGGUAGGUCGCGGUGAAGUCA [Omei KL Arginine B SS C v8]	997
AACUUAAUUUAUAAGCAGUGAUGUUGCUCACGAGGACCGGUACGGCCGCCACUCGAUCGGACUUAGGUCUUCAAUUAUUUCUUAA [JR_ExcTryptoA_Sub018]	137
AGUGAUAUAUGAGGAUAUGGGUUUGUUAAUGAGUUUGUUUUAGUGUUGUUUGGUUAGUGAUGUUAUUUAGAAGGCGUGAGUGAUG [vxxexmullin]	82.4
